According to article doi:10.1101/2021.08.02.453806:

Target: MBP-PPM-1.D-10xHIS (C. elegans)
Assay: pull-down

fold CHK-2 pulled down, normalized, relative to truncated PPM-1.D: 20 fold
B1: GST-CHK-2-3xFLAG (enzyme)
chain: MVRGTKRRRSSAEKPIVVVPVTRDDTMPVDEDLVVGESQCAASKPFAKLVGVRRGISSIDLADDHFVCGRGSDDAPTNFNFSQVAKDVGLYRFISKIQFSIDRDTETRRIYLHDHSRNGTLVNQEMIGKGLSRELMNGDLISIGIPALIIFVYESADADHHPEELTKKYHVTSHSLGKGGFGKVLLGYKKSDRSVVAIKQLNTQFSTRCSRAIAKTRDIRNEVEVMKKLSHPNIVAIYDWITVAKYSYMVIEYVGGGEFFSKVVDSKYNRMGLGESLGKYFAFQLIDAILYLHSVGICHRDIKPENILCSDKAERCILKLTDFGMAKNSVNRMKTRCGTPSYNAPEIVANEGVEYTPKVDIWSLGCVLFITFSGYPPFSEEYTDMTMDEQVLTGRLIFHAQWRRITVETQNMIKWMLTVEPSNRPSAVELMSTQWMKCADCRTAKQDILKSIKPISAAAPAALQTTQAGPVKKAKM
